{"source": "paper PMC2140218", "binders": {"B1": {"name": "Stu2p (natural protein)", "chain": "MSGEEEVDYTTLPLEERLTYKLWKARLEAYKELNQLFRNSVGDISRDDNIQIYWRDPTLFAQYITDSNVVAQEQAIVALNSLIDAFASSSLKNAHNITLISTWTPLLVEKGLTSSRATTKTQSMSCILSLCGLDTSITQSVELVIPFFEKKLPKLIAAAANCVYELMAAFGLTNVNVQTFLPELLKHVPQLAGHGDRNVRSQTMNLIVEIYKVTGNNSDLLEEILFKKLKPIQVKDLHKLFAKVGDEPSSSKMLFEWEKRELEKKRSQEEEARKRKSILSNDEGEYQIDKDGDTLMGMETDMPPSKQQSGVQIDTFSMLPEETILDKLPKDFQERITSSKWKDRVEALEEFWDSVLSQTKKLKSTSQNYSNLLGIYGHIIQKDANIQAVALAAQSVELICDKLKTPGFSKDYVSLVFTPLLDRTKEKKPSVIEAIRKALLTICKYYDPLASSGRNEDMLKDILEHMKHKTPQIRMECTQLFNASMKEEKDGYSTLQRYLKDEVVPIVIQIVNDTQPAIRTIGFESFAILIKIFGMNTFVKTLEHLDNLKRKKIEETVKTLPNFSIASGSTHSTIETNKQTGPMENKFLLKKSSVLPSKRVASSPLRNDNKSKVNPIGSVASASKPSMVAANNKSRVLLTSKSLATPKNVVANSTDKNEKLIEEYKYRLQKLQNDEMIWTKERQSLLEKMNNTENYKIEMIKENEMLREQLKEAQSKLNEKNIQLRSKEIDVNKLSDRVLSLENELRNMEIELDRNKKRNDTNLQSMGTISSYSIPSSTVSSNYGVKSLSSALPFKEEEDVRRKEDVNYERRSSESIGDLPHRVNSLNIRPYRKNGTGVSSVSDDLDIDFNDSFASEESYKRAAAVTSTLKARIEKMKAKSRREGTTRT", "modifications": "[35S]methionine label"}, "B2": {"name": "Stu2p C657 (domain or fragment)", "chain": "MSGEEEVDYTTLPLEERLTYKLWKARLEAYKELNQLFRNSVGDISRDDNIQIYWRDPTLFAQYITDSNVVAQEQAIVALNSLIDAFASSSLKNAHNITLISTWTPLLVEKGLTSSRATTKTQSMSCILSLCGLDTSITQSVELVIPFFEKKLPKLIAAAANCVYELMAAFGLTNVNVQTFLPELLKHVPQLAGHGDRNVRSQTMNLIVEIYKVTGNNSDLLEEILFKKLKPIQVKDLHKLFAKVGDEPSSSKMLFEWEKRELEKKRSQEEEARKRKSILSNDEGEYQIDKDGDTLMGMETDMPPSKQQSGVQIDTFSMLPEETILDKLPKDFQERITSSKWKDRVEALEEFWDSVLSQTKKLKSTSQNYSNLLGIYGHIIQKDANIQAVALAAQSVELICDKLKTPGFSKDYVSLVFTPLLDRTKEKKPSVIEAIRKALLTICKYYDPLASSGRNEDMLKDILEHMKHKTPQIRMECTQLFNASMKEEKDGYSTLQRYLKDEVVPIVIQIVNDTQPAIRTIGFESFAILIKIFGMNTFVKTLEHLDNLKRKKIEETVKTLPNFSIASGSTHSTIETNKQTGPMENKFLLKKSSVLPSKRVASSPLRNDNKSKVNPIGSVASASKPSMVAANNKSRVLLTSKSLATPKNVVANSTDKN", "modifications": "[35S]methionine label"}, "B3": {"name": "Stu2p N558 (domain or fragment)", "chain": "KTLPNFSIASGSTHSTIETNKQTGPMENKFLLKKSSVLPSKRVASSPLRNDNKSKVNPIGSVASASKPSMVAANNKSRVLLTSKSLATPKNVVANSTDKNEKLIEEYKYRLQKLQNDEMIWTKERQSLLEKMNNTENYKIEMIKENEMLREQLKEAQSKLNEKNIQLRSKEIDVNKLSDRVLSLENELRNMEIELDRNKKRNDTNLQSMGTISSYSIPSSTVSSNYGVKSLSSALPFKEEEDVRRKEDVNYERRSSESIGDLPHRVNSLNIRPYRKNGTGVSSVSDDLDIDFNDSFASEESYKRAAAVTSTLKARIEKMKAKSRREGTTRT", "modifications": "[35S]methionine label"}, "B4": {"name": "Stu2p C557 (domain or fragment)", "chain": "MSGEEEVDYTTLPLEERLTYKLWKARLEAYKELNQLFRNSVGDISRDDNIQIYWRDPTLFAQYITDSNVVAQEQAIVALNSLIDAFASSSLKNAHNITLISTWTPLLVEKGLTSSRATTKTQSMSCILSLCGLDTSITQSVELVIPFFEKKLPKLIAAAANCVYELMAAFGLTNVNVQTFLPELLKHVPQLAGHGDRNVRSQTMNLIVEIYKVTGNNSDLLEEILFKKLKPIQVKDLHKLFAKVGDEPSSSKMLFEWEKRELEKKRSQEEEARKRKSILSNDEGEYQIDKDGDTLMGMETDMPPSKQQSGVQIDTFSMLPEETILDKLPKDFQERITSSKWKDRVEALEEFWDSVLSQTKKLKSTSQNYSNLLGIYGHIIQKDANIQAVALAAQSVELICDKLKTPGFSKDYVSLVFTPLLDRTKEKKPSVIEAIRKALLTICKYYDPLASSGRNEDMLKDILEHMKHKTPQIRMECTQLFNASMKEEKDGYSTLQRYLKDEVVPIVIQIVNDTQPAIRTIGFESFAILIKIFGMNTFVKTLEHLDNLKRKKIEETV", "modifications": "[35S]methionine label"}, "B5": {"name": "Stu2p N658 (domain or fragment)", "chain": "EKLIEEYKYRLQKLQNDEMIWTKERQSLLEKMNNTENYKIEMIKENEMLREQLKEAQSKLNEKNIQLRSKEIDVNKLSDRVLSLENELRNMEIELDRNKKRNDTNLQSMGTISSYSIPSSTVSSNYGVKSLSSALPFKEEEDVRRKEDVNYERRSSESIGDLPHRVNSLNIRPYRKNGTGVSSVSDDLDIDFNDSFASEESYKRAAAVTSTLKARIEKMKAKSRREGTTRT", "modifications": "[35S]methionine label"}, "B6": {"name": "Stu2p C611 (domain or fragment)", "chain": "MSGEEEVDYTTLPLEERLTYKLWKARLEAYKELNQLFRNSVGDISRDDNIQIYWRDPTLFAQYITDSNVVAQEQAIVALNSLIDAFASSSLKNAHNITLISTWTPLLVEKGLTSSRATTKTQSMSCILSLCGLDTSITQSVELVIPFFEKKLPKLIAAAANCVYELMAAFGLTNVNVQTFLPELLKHVPQLAGHGDRNVRSQTMNLIVEIYKVTGNNSDLLEEILFKKLKPIQVKDLHKLFAKVGDEPSSSKMLFEWEKRELEKKRSQEEEARKRKSILSNDEGEYQIDKDGDTLMGMETDMPPSKQQSGVQIDTFSMLPEETILDKLPKDFQERITSSKWKDRVEALEEFWDSVLSQTKKLKSTSQNYSNLLGIYGHIIQKDANIQAVALAAQSVELICDKLKTPGFSKDYVSLVFTPLLDRTKEKKPSVIEAIRKALLTICKYYDPLASSGRNEDMLKDILEHMKHKTPQIRMECTQLFNASMKEEKDGYSTLQRYLKDEVVPIVIQIVNDTQPAIRTIGFESFAILIKIFGMNTFVKTLEHLDNLKRKKIEETVKTLPNFSIASGSTHSTIETNKQTGPMENKFLLKKSSVLPSKRVASSPLRNDNKS", "modifications": "[35S]methionine label"}, "B7": {"name": "Stu2p N612 (domain or fragment)", "chain": "KVNPIGSVASASKPSMVAANNKSRVLLTSKSLATPKNVVANSTDKNEKLIEEYKYRLQKLQNDEMIWTKERQSLLEKMNNTENYKIEMIKENEMLREQLKEAQSKLNEKNIQLRSKEIDVNKLSDRVLSLENELRNMEIELDRNKKRNDTNLQSMGTISSYSIPSSTVSSNYGVKSLSSALPFKEEEDVRRKEDVNYERRSSESIGDLPHRVNSLNIRPYRKNGTGVSSVSDDLDIDFNDSFASEESYKRAAAVTSTLKARIEKMKAKSRREGTTRT", "modifications": "[35S]methionine label"}}, "key": {"[1]": {"target": "taxol-stabilized bovine brain microtubules (bovine) (UniProt Q6B856)", "test": "co-sedimentation"}, "[2]": {"target": "taxol-stabilized bovine brain microtubules (bovine) (UniProt Q6B856)", "test": "co-sedimentation", "remark": "listed apart in the source"}}, "note": "Where two headings read alike, the source gives them in different places."}
{"binder": "B1", "values": [{"measurement": "Kd", "setting": "[1]", "value": 560, "unit": "nM"}, {"measurement": "Kd", "setting": "[2]", "value": 540, "unit": "nM"}]}
{"binder": "B2", "values": [{"measurement": "fold higher Kd than full length Stu2p", "setting": "[2]", "value": 1.6, "unit": "fold"}]}
{"binder": "B3", "values": [{"measurement": "fold higher Kd than full length Stu2p", "setting": "[2]", "value": 1.4, "unit": "fold"}]}
{"binder": "B4", "values": [{"measurement": "fold higher Kd than full length Stu2p", "setting": "[2]", "value": 30, "unit": "fold"}]}
{"binder": "B5", "values": [{"measurement": "fold higher Kd than full length Stu2p", "setting": "[2]", "value": "> 50", "unit": "fold"}]}
{"binder": "B6", "values": [{"measurement": "fold higher Kd than full length Stu2p", "setting": "[2]", "value": 6, "unit": "fold"}]}
{"binder": "B7", "values": [{"measurement": "fold higher Kd than full length Stu2p", "setting": "[2]", "value": 3.5, "unit": "fold"}]}
